From CN117886935A (BEIJING KENUO XINCHENG TECH CO LTD, dated 2024) come the findings set out here.

Positions count from the first letter of the chain named.

The chains are these.
B1: Cabiralizumab (FPA-008) (antibody, V domains shown)
VH: QVQLVQSGAEVKKPGSSVKVSCKASGYTFTDNYMIWVRQAPGQGLEWMGDINPYNGGTTFNQKFKGRVTITADKSTSTAYMELSSLRSEDTAVYYCARESPYFSNLYVMDYWGQGTLVTVSS
VL: EIVLTQSPATLSLSPGERATLSCKASQSVDYDGDNYMNWYQQKPGQAPRLLIYAASNLESGIPARFSGSGSGTDFTLTISSLEPEDFAVYYCHLSNEDLSTFGGGTKVEIK
notes: Control antibody, synthesised after CN107011438 A; also called Cabirlizumab; 对照抗体
B2: hz73 (antibody, V domains shown)
VH: EVQLVQSGAEVKKPGASVKVSCKASGYTFTDYNMDWVRQAPGQGLEWMGDIIPNYDSATYNQKFKGRVTMTRDTSTSTVYMELSSLRSEDTAVYYCARKGGGYVNWYFDVWGQGTTVTVSS
VL: DIQMTQSPSSLSASVGDRVTITCHASQNINVWLSWYQQKPGKAPKLLIYKASNLHTGVPSRFSGSGSGTDFTFTISSLQPEDIATYYCQQGESYPYTFGGGTKVEIK
notes: also called 人源化抗体hz73
B3: ch73 (antibody, human IgG1, kappa, V domains shown)
VH: EVQLQQFGAELVKPGASVKISCKASGYTFTDYNMDWMKQSHGKSLEWIGDIIPNYDSATYNQKFKGKATLTVDRSSSTAYMELRSLSSEDTAVYYCARKGGGYVNWYFDVWGAGTTVTVSS
VL: DIQMNQSPSSLSASLGDTITITCHASQNINVWLSWYQQKPGNIPKLLIYKASNLHTGVPSRFSGSGSGTGFTLTISSLQPEDIATYYCQQGESYPYTFGGGTKLEIKR
notes: also called 嵌合抗体ch73; 73号
B4: Hm4L (antibody, V domains shown)
VH: B2 VH with D50G
VL: B2 VL
B5: Hm6L (antibody, V domains shown)
VH: B2 VH with N61A
VL: B2 VL
B6: Lm7H (antibody, V domains shown)
VH: B2 VH
VL: B2 VL with H24R, K50D, H55E
B7: Hm2L (antibody, V domains shown)
VH: B2 VH with D31S
VL: B2 VL
B8: Lm4H (antibody, V domains shown)
VH: B2 VH
VL: B2 VL with W32Y, S34N
B9: Lm3H (antibody, V domains shown)
VH: B2 VH
VL: B2 VL with S34N
B10: Hm5L (antibody, V domains shown)
VH: B2 VH with D56E
VL: B2 VL
B11: Lm5H (antibody, V domains shown)
VH: B2 VH
VL: B2 VL with K50D
B12: Lm4Hm7 (antibody, V domains shown)
VH: B2 VH with D31S, D35H, D56E, N61A
VL: B2 VL with W32Y, S34N
B13: Hm3L (antibody, V domains shown)
VH: B2 VH with D35H
VL: B2 VL
B14: Lm7Hm7 (antibody, V domains shown)
VH: B2 VH with D31S, D35H, D56E, N61A
VL: B2 VL with H24R, K50D, H55E
B15: Lm2H (antibody, V domains shown)
VH: B2 VH
VL: B2 VL with W32Y
B16: Hm1L (antibody, V domains shown)
VH: B2 VH with D31E
VL: B2 VL
B17: Lm1H (antibody, V domains shown)
VH: B2 VH
VL: B2 VL with H24R
B18: Lm6H (antibody, V domains shown)
VH: B2 VH
VL: B2 VL with H55E

CSF-1R on CSF-1R/SRE-Luc/HEK293 reporter cells, sequence (P07333 20-972 limits assumed): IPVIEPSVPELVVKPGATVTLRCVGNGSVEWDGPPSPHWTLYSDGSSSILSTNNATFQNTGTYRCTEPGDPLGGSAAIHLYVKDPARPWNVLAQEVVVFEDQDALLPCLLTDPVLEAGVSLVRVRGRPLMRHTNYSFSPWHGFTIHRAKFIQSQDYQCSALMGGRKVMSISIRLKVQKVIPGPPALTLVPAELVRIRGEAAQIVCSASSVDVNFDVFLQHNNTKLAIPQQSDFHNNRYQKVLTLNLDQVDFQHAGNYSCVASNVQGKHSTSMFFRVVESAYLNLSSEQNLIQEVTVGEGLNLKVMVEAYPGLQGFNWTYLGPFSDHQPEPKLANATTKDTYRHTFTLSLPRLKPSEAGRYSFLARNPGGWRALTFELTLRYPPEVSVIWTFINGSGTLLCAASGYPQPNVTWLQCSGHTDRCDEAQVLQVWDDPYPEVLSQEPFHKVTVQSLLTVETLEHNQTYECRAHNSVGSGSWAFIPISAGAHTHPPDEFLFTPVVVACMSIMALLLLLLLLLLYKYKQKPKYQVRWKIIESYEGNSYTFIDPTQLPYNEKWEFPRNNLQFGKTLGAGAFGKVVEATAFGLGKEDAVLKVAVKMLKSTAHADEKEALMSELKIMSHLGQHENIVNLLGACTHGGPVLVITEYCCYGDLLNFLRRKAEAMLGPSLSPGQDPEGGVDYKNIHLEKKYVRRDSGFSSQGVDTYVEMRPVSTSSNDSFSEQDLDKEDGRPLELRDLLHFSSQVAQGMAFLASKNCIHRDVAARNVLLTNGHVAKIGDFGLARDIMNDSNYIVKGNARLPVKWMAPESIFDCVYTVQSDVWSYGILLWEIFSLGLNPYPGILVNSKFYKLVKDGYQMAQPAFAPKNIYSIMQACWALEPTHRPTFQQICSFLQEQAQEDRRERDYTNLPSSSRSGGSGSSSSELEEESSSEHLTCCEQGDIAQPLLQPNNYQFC

The first experiment addresses CSF-1R on CSF-1R/SRE-Luc/HEK293 reporter cells (UniProt P07333 20-972, limits assumed). Kind of experiment: cell-based or functional assay.
With B1, the “IC50, inhibition of CSF-1-stimulated (7.2 ng/ml) SRE-Luc reporter in CSF-1R/SRE-Luc/HEK293 cells” value amounted to 0.21 µg/mL and the “IC50, inhibition of IL-34-stimulated (85.06 ng/ml) SRE-Luc reporter in CSF-1R/SRE-Luc/HEK293 cells” value worked out at 0.34 µg/mL.
As to B2, the “IC50, inhibition of CSF-1-stimulated (7.2 ng/ml) SRE-Luc reporter in CSF-1R/SRE-Luc/HEK293 cells” value worked out at 0.31 µg/mL and the “IC50, inhibition of IL-34-stimulated (85.06 ng/ml) SRE-Luc reporter in CSF-1R/SRE-Luc/HEK293 cells” value was 0.8 µg/mL.

The target of the next experiment is T1, 人CSF-1R-his重组蛋白 (human CSF-1R-his recombinant protein) (human, UniProt P07333 20-512, limits assumed).
T1 construct: Analyte of the ForteBio assay, 60 nM; also called CD115; M-CSF-R; not shown: His tag
T1 sequence (P07333 20-512 limits assumed): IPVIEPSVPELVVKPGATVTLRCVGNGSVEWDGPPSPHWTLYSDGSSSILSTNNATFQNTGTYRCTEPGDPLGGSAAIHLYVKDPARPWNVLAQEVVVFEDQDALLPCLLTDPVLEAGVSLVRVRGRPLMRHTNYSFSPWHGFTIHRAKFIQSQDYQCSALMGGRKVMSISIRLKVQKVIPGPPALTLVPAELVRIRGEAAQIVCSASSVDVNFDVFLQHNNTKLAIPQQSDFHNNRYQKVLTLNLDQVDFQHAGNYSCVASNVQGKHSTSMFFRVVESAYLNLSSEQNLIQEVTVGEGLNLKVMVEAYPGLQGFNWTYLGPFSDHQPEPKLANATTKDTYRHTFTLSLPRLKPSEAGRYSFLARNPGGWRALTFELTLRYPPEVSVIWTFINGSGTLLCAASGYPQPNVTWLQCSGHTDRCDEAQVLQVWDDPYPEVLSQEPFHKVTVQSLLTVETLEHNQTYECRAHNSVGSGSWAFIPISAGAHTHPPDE
Kind of experiment: BLI (ForteBio). In general terms: Biolayer interferometry detects binding as a change in optical thickness at a sensor tip.
Broadly, the Kd is the equilibrium constant for the complex coming apart. As a reminder, the koff is the first-order rate constant of dissociation. By kon is commonly meant the rate constant with which the complex forms. Turning to B3, the dissociation constant (Kd) turned out to be 0.03 nM, the dissociation rate constant (koff) stood at 6.54e-06 s⁻¹ and the on-rate (kon) came out at 218000 M⁻¹ s⁻¹.
B2: the dissociation constant (Kd) amounted to 0.0605 nM, the dissociation rate constant (koff) was 1.3e-05 s⁻¹ and the kon came out at 215000 M⁻¹ s⁻¹.
Take B4: the Kd came out at 0.125 nM, the dissociation rate constant (koff) is 1.4e-05 s⁻¹ and the on-rate constant (kon) worked out at 112000 M⁻¹ s⁻¹.
Turning to B5, the equilibrium dissociation constant (Kd) was 0.0785 nM, the koff worked out at 1.53e-05 s⁻¹ and the on-rate constant (kon) stood at 195000 M⁻¹ s⁻¹.
As to B6, the Kd is 0.0634 nM, the koff worked out at 1.3e-05 s⁻¹ and the kon was 205000 M⁻¹ s⁻¹.
Consider B7, for which the Kd worked out at 0.0963 nM, the koff came to 2.9e-05 s⁻¹ and the kon is 301000 M⁻¹ s⁻¹.
As to B8, the Kd is 0.189 nM, the off-rate constant (koff) was determined as 1.93e-05 s⁻¹ and the on-rate constant (kon) came to 102000 M⁻¹ s⁻¹.
B9: the Kd amounted to 0.0935 nM, the off-rate constant (koff) worked out at 1.45e-05 s⁻¹ and the kon amounted to 155000 M⁻¹ s⁻¹.
Regarding B10, the Kd came out at 0.0794 nM, the koff stood at 2.55e-05 s⁻¹ and the kon is 321000 M⁻¹ s⁻¹.
As to B11, the Kd came to 0.105 nM, the koff was 2.1e-05 s⁻¹ and the kon came out at 200000 M⁻¹ s⁻¹.
For B12, the dissociation constant Kd stood at 0.138 nM, the koff is 2.02e-05 s⁻¹ and the association rate constant (kon) stood at 146000 M⁻¹ s⁻¹.
For B13, the Kd came to 0.082 nM, the dissociation rate constant (koff) worked out at 2.1e-05 s⁻¹ and the kon stood at 256000 M⁻¹ s⁻¹.
In the case of B14, the Kd was 0.107 nM, the off-rate (koff) was 1.23e-05 s⁻¹ and the kon is 115000 M⁻¹ s⁻¹.
With B15, the Kd was found to be 0.109 nM, the off-rate constant (koff) stood at 1.14e-05 s⁻¹ and the kon is 105000 M⁻¹ s⁻¹.
In the case of B16, the Kd was 0.0853 nM, the dissociation rate constant (koff) turned out to be 2.2e-05 s⁻¹ and the on-rate constant (kon) amounted to 258000 M⁻¹ s⁻¹.
Regarding B17, the Kd worked out at 0.0683 nM, the off-rate constant (koff) amounted to 1.4e-05 s⁻¹ and the on-rate (kon) is 205000 M⁻¹ s⁻¹.
On to B18, for which the Kd was 0.188 nM, the koff came out at 1.9e-05 s⁻¹ and the kon stood at 101000 M⁻¹ s⁻¹.

In another experiment the target is T2, CSF-1R-mFc (human, UniProt P07333 20-512, limits assumed).
T2 construct: not shown: mouse Fc (mFc)
T2 sequence (P07333 20-512 limits assumed): as above
Description: competition ELISA: human IL-34 coated, CSF-1R-mFc 0.15 μg/ml premixed with antibody.
For orientation: IC50 means the concentration needed to halve the response being measured. High values mean a need for much substance, low ones inhibition by little substance. B3 gave an IC50 of approximately 0.71 nM.
Still for that read-out and setting: the value for B1 was approximately 0.752 nM; that for B2 was 0.393 nM.

Another experiment deals with T3, CSF-1R on rhCSF-1R-CHO cells (human, UniProt P07333 20-972).
T3 construct: whole, on cells; also called 细胞表面CSF-1R; CSF-1R-CHO细胞
T3 sequence (P07333 20-972): as the sequence (P07333 20-972 limits assumed) above
Kind of experiment: flow cytometry on rhCSF-1R-CHO cells, FITC goat anti-human. A general note: A flow cytometer gives signals particle by particle.
As usually defined, the EC50 is the concentration giving half of the maximal effect. Read a low EC50 as an effect from little substance. B1 had a 50% effective concentration (EC50) of 0.109 µg/mL.
Still for that read-out and setting: the figure for B2 is 0.196 µg/mL; for B5 it is 0.199 µg/mL.
In turn, B6 yielded an EC50 of 0.201 µg/mL.
For B9, the midpoint of the response, the EC50, lay at 0.253 µg/mL.

The target in another experiment is T1, 人CSF-1R-his重组蛋白 (human CSF-1R-his …). Kind of experiment: BLI (ForteBio), antibody on AHC probe, CSF-1R-his 60 nM, 1:1 fit.
B3: the dissociation constant (Kd) turned out to be 0.03 nM, the off-rate constant (koff) was 6.54e-06 s⁻¹ and the association rate constant (kon) came out at 218000 M⁻¹ s⁻¹.
On to B1, for which the Kd came out at 2.38 nM, the dissociation rate constant (koff) is 0.000228 s⁻¹ and the association rate constant (kon) amounted to 95800 M⁻¹ s⁻¹.

Another experiment deals with T2, CSF-1R-mFc. Kind of experiment: competition ELISA: CSF1-His coated, CSF-1R-mFc 0.15 μg/ml premixed with antibody. (ELISA stands for enzyme-linked immunosorbent assay.)
Molecule B3 displayed an IC50 of 0.323 nM. In other words, the sub-nanomolar range.
As to B1, the IC50 amounted to 0.3 nM.
For B2, the concentration for half-maximal inhibition (IC50) worked out at 0.339 nM.
